Key:
Tie2 receptor on HUVEC [1] = target: T1, Tie2 receptor on HUVEC (human, UniProt Q02763 23-1124); test: summary sentence of Example 3 (co-IP and HUVEC activation)
T1 construct: whole, on cells; also called TEK; Tie2 receptor tyrosine kinase

Tie2 receptor on HUVEC [2] = target: T1, Tie2 receptor on HUVEC; test: cell-based or functional assay

T1 sequence (Q02763 23-1124): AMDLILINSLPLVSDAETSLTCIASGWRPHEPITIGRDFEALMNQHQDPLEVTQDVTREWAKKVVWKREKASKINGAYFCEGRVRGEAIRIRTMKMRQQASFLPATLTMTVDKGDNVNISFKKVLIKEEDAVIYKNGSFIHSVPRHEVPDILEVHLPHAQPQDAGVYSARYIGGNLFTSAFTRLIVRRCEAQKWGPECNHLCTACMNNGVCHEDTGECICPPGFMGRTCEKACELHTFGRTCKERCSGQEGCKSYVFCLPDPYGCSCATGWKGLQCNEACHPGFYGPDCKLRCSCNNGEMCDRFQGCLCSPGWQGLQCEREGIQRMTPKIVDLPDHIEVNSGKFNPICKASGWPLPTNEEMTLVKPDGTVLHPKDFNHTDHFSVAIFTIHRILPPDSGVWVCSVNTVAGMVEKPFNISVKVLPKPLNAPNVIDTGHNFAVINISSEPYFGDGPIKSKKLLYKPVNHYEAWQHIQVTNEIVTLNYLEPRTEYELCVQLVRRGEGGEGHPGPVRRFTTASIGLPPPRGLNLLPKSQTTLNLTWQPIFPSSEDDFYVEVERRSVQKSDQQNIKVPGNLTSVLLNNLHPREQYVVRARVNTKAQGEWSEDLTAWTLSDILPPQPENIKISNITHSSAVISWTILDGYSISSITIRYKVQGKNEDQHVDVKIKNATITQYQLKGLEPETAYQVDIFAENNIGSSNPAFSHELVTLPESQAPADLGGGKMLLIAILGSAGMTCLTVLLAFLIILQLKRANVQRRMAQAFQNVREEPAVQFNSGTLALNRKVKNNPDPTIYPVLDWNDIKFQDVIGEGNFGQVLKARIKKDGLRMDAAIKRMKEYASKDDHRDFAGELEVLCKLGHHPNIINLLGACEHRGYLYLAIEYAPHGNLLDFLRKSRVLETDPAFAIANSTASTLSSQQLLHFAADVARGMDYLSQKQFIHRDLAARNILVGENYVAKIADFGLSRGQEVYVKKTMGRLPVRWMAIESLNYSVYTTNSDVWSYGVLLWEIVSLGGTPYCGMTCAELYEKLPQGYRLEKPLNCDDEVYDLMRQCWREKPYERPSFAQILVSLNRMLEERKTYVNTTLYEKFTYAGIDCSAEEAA

B1: C4BP-ANG1 (designed binder, not shown: small tags and cut ends)
chain: ETPEGCEQVLTGKRLMQCLPNPEDVKMALEVYKLSLEIEQLELQRDSARQSTLDKELGGGGSKPFRDCADVYQAGFNKSGIYTIYINNMPEPKKVFCNMDVNGGGWTVIQHREDGSLDFQRGWKEYKMGFGNPSGEYWLGNEFIFAITSQRQYMLRIELMDWEGNRAYSQYDRFHIGNEKQNYRLYLKGHTGTAGKQSSLILHGADFSTKDADNDNCMCKCALMLTGGWWFDACGPSNLNGMFYTAGQNHGKLNGIKWHYFKGPSYSLRSTTMMIRPLDF
notes: Heptamer through disulfide-bridged C4BP segment; also called C4BP-ANG1 chimeric fusion protein
- binding result (Tie2 receptor on HUVEC [1]): binds

B2: ANG1-C4BP (designed binder, not shown: small tags and cut ends)
chain: KPFRDCADVYQAGFNKSGIYTIYINNMPEPKKVFCNMDVNGGGWTVIQHREDGSLDFQRGWKEYKMGFGNPSGEYWLGNEFIFAITSQRQYMLRIELMDWEGNRAYSQYDRFHIGNEKQNYRLYLKGHTGTAGKQSSLILHGADFSTKDADNDNCMCKCALMLTGGWWFDACGPSNLNGMFYTAGQNHGKLNGIKWHYFKGPSYSLRSTTMMIRPLDFGGGGSETPEGCEQVLTGKRLMQCLPNPEDVKMALEVYKLSLEIEQLELQRDSARQSTLDKEL
- phosphorylation level of AKT (pAKT) in HUVEC treated for 20 minutes, EC50 (Tie2 receptor on HUVEC [2]): 87 ng/mL

Reference: US20230091105A1 (NORTHWESTERN UNIVERSITY, published 2023)
